Our source for the Kd, koff and kon values is patent US20170112926A1.

The test addresses hTEM8-AP (UniProt Q9H6X2). In words: Biacore affinity measurement of Fab. (In SPR one partner is held on a chip, and binding of the other changes the refractive index at the surface.)

Chain of hTEM8-AP (Q9H6X2 33-321): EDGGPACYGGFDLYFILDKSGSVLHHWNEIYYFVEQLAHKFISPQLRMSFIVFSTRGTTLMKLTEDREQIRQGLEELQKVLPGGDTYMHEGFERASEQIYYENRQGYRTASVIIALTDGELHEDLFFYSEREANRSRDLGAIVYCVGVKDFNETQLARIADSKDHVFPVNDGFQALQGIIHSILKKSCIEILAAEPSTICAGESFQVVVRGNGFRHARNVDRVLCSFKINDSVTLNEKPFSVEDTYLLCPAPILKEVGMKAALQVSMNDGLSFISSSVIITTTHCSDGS

B1: M825 Fab (anti-TEM8 fragment antigen-binding) (Fab, V domains shown)
VH: QVQLVQSGAEVKKPGTSVKVSCKVPGYTFSSYAISWVRQAPGQGLEWMGGIIPIFGTTNYAQKFQGRVTITGEESTSTVYMELSSLRSEDTAVYYCARDTDYMFDYWGQGTLVTVSS
VL: SSELTQDPVVSVALGETVSITCQGDNLRDFYASWYQQKPGQAPLLVMYGKNRRPSGIPDRFSGSTSGNTLSLTITGAQAEDEADYYCSSRDNSKHVVFGGGTKVTVL
In general, Kd refers to a measure of binding affinity in units of concentration. A lower Kd goes with higher affinity. In general, koff refers to the rate constant with which the complex falls apart. For orientation: kon means a measure of how fast the partners come together. Low values mean slower complex formation, high ones faster complex formation. For the molecule B1, the Kd stood at 0.0591 nM, the koff came to 0.00018 s⁻¹ and the association rate constant (kon) came to 3.05e+06 M⁻¹ s⁻¹.
